Assay results as given in ChEMBL document CHEMBL2074270, “Transport of amphipathic anions by human multidrug resistance protein 3” (Cancer Res, 2000).

Tests used:
Assay type in all cases: functional, cell membranes
Settings in all cases: Membrane vesicle
[1] = substrate: C[C@]12CC[C@@H]3c4ccc(O)cc4CC[C@H]3[C@@H]1CC[C@@H]2O[C@@H]1O[C@H](C(=O)O)[C@@H](O)[C@H](O)[C@H]1O; assay: (§1) TP_TRANSPORTER: uptake in membrane vesicles from MRP3-expressing HEK293 cells
[2] = substrate: N[C@@H](CCC(=O)N[C@H](CSc1ccc([N+](=O)[O-])cc1[N+](=O)[O-])C(=O)NCC(=O)O)C(=O)O; assay: as §1
[3] = substrate: CCCCC/C=C\C/C=C\C=C\C=C\[C@@H](SC[C@@H](NC(=O)CC[C@H](N)C(=O)O)C(=O)NCC(=O)O)[C@@H](O)CCCC(=O)O; assay: as §1
[4] = substrate: C[C@H](CCC(=O)NCC(=O)O)[C@H]1CC[C@H]2[C@@H]3[C@H](O)C[C@@H]4C[C@H](O)CC[C@]4(C)[C@H]3C[C@H](O)[C@]12C; assay: as §1
[5] = substrate: CN(Cc1cnc2nc(N)nc(N)c2n1)c1ccc(C(=O)N[C@@H](CCC(=O)O)C(=O)O)cc1; assay: as §1

B1: Multidrug resistance associated protein (Homo sapiens), Q96QA9 (protein)
chain: MDALCGSGELGSKFWDSNLSVHTENPDLTPCFQNSLLAWVPCIYLWVALPCYLLYLRHHCRGYIILSHLSKLKMVLGVLLWCVSWADLFYSFHGLVHGRAPAPVFFVTPLVVGVTMLLATLLIQYERLQGVQSSGVLIIFWFLCVVCAIVPFRSKILLAKAEGEISDPFRFTTFYIHFALVLSALILACFREKPPFFSAKNVDPNPYPETSAGFLSRLFFWWFTKMAIYGYRHPLEEKDLWSLKEEDRSQMVVQQLLEAWRKQEKQTARHKASAAPGKNASGEDEVLLGARPRPRKPSFLKALLATFGSSFLISACFKLIQDLLSFINPQLLSILIRFISNPMAPSWWGFLVAGLMFLCSMMQSLILQHYYHYIFVTGVKFRTGIMGVIYRKALVITNSVKRASTVGEIVNLMSVDAQRFMDLAPFLNLLWSAPLQIILAIYFLWQNLGPSVLAGVAFMVLLIPLNGAVAVKMRAFQVKQMKLKDSRIKLMSEILNGIKVLKLYAWEPSFLKQVEGIRQGELQLLRTAAYLHTTTTFTWMCSPFLVTLITLWVYVYVDPNNVLDAEKAFVSVSLFNILRLPLNMLPQLISNLTQASVSLKRIQQFLSQEELDPQSVERKTISPGYAITIHSGTFTWAQDLPPTLHSLDIQVPKGALVAVVGPVGCGKSSLVSALLGEMEKLEGKVHMKGSVAYVPQQAWIQNCTLQENVLFGKALNPKRYQQTLEACALLADLEMLPGGDQTEIGEKGINLSGGQRQRVSLARAVYSDADIFLLDDPLSAVDSHVAKHIFDHVIGPEGVLAGKTRVLVTHGISFLPQTDFIIVLADGQVSEMGPYPALLQRNGSFANFLCNYAPDEDQGHLEDSWTALEGAEDKEALLIEDTLSNHTDLTDNDPVTYVVQKQFMRQLSALSSDGEGQGRPVPRRHLGPSEKVQVTEAKADGALTQEEKAAIGTVELSVFWDYAKAVGLCTTLAICLLYVGQSAAAIGANVWLSAWTNDAMADSRQNNTSLRLGVYAALGILQGFLVMLAAMAMAAGGIQAARVLHQALLHNKIRSPQSFFDTTPSGRILNCFSKDIYVVDEVLAPVILMLLNSFFNAISTLVVIMASTPLFTVVILPLAVLYTLVQRFYAATSRQLKRLESVSRSPIYSHFSETVTGASVIRAYNRSRDFEIISDTKVDANQRSCYPYIISNRWLSIGVEFVGNCVVLFAALFAVIGRSSLNPGLVGLSVSYSLQVTFALNWMIRMMSDLESNIVAVERVKEYSKTETEAPWVVEGSRPPEGWPPRGEVEFRNYSVRYRPGLDLVLRDLSLHVHGGEKVGIVGRTGAGKSSMTLCLFRILEAAKGEIRIDGLNVADIGDPILFSGTLRMNLDPFGSYSEEDIWWALELSHLHTFVSSQPAGLDFQCSEGGENLSVGQRQLVCLARALLRKSRILVLDEATAAIDLETDNLIQATIRTQFDTCTVLTIAHRLNTIMDYTRVLVLDKGVVAEFDSPANLIAARGIFYGMARDAGLA
Q: How did the Km [1] turn out when B1 was run?
A: The Km was 25.6 µM.

Q: And the Km [2]?
A: The Km was 5.7 µM.

Q: What about the Km [3] of the same protein?
A: Its Km is 5.3 µM.

Q: And the Km [4]?
A: Its Km is 248 µM.

Q: What about the Km [5] of the same protein?
A: Its Km is 776 µM.
